B3: PapD (wild type) (other)
chain: AVSLDRTRAVFDGSEKSMTLDISNDNKQLPYLAQAWIENENQEKIITGPVIATPPVQRLEPGAKSMVRLSTTPDISKLPQDRESLFYFNLREIPPRSEKANVLQIALQTKIKLFYRPAAIKTRPNEVWQDQLILNKVSGGYRIENPTPYYVTVIGLGGSEKQAEEGEFETVMLSPRSEQTVKSANYNTPYLSYINDYGGRPVLSFICNGSRCSVKKEK
notes: also called WT PapD; native PapD

For assay [1], the target named is B3. Briefly: soluble inhibition ELISA on G1′-19′WT-coated wells. (In general: An ELISA detects its analyte on a solid surface through an enzyme-linked reagent.)
From the text: (§1) The wells were washed with PBS and blocked with 3% bovine serum albumin (BSA).
Assay [2] concerns the target B3. Briefly: inhibition ELISA: PapD preincubated with peptide, MBP-G1′-140′-coated wells.
Assay [3] has as its target B3. Briefly: soluble inhibition ELISA: 25-fold molar excess of peptide, 100 pmol/well PapD, G1′-19′WT-coated wells.
From the text: as §1
The target in assay [4] is T1, maltose binding protein (MBP) (UniProt P0AEX9 27-392 = MBP).
T1 construct: also called MBP control
Briefly: co-expression, amylose affinity chromatography.

For assay [5], the target named is T2, modified PapG peptide, Ser-9′ substituted by Cys, labelled with 5-IAF (E. coli).
T2 construct: also called labelled peptide; fluorescence labelled PapG analogue
Briefly: fluorescence intensity at 514 nm of the 5-IAF-labelled PapG peptide against increasing PapD concentration.
From the text: The environmentally sensitive fluorescent probe 5-IAF (5-iodoacetamidfluorescein) was then covalently coupled to the peptide via the sulfhydryl group on the Cys residue and the labelled peptide was purified; of course any other suitable envirorenmentally sensitive fluorescent probe may be employed.

Assay [6] addresses B3. Briefly: ELISA, peptide coated on wells, PapD in solution, anti-PapD antiserum.
Method: (§2) 5 mg/ml stock solutions of peptides in water or 50% acetic acid were diluted to a concentration of 2.5 pmol/50 μl in PBS. 50 μl of the peptide solution was coated overnight onto microtiter wells (Nunc-Immuno Plate Maxisorp) at 4° C. The solutions in the plates were discarded, and the wells were blocked with 200 μl 3% bovine serum albumin (BSA, Sigma) in PBS (120 mM NaCl/2.7 mM KCl/10 mM phosphate buffer salts, pH 7.4) for 2 hours at 25° C. […] After 3 washes with PBS, the wells were incubated with a 1:1000 dilution of goat anti-rabbit IgG coupled to alkaline phosphatase (Sigma) in 3% BSA/PBS for 45 min. at 25° C. Following 3 washes with PBS and 3 washes with developing buffer (10 mM diethanolamine pH 9.5, 0.5 μM MgCl₂), 50 μl filtered p-nitrophenyl phosphate substrate (Sigma) in developing buffer (10 mg/ml) was added.
Assay [7] addresses B3. Briefly: ELISA, peptide coated on wells, anti-PapD antiserum.
In assay [8] the target is B3. Briefly: ELISA, peptide coated on wells, 200 pmol PapD, anti-PapD antiserum.
Method: For assaying the second site peptides, all the peptides were dissolved in dimethyl sulfoxide (DMSO, Sigma, St. Louis, Mo., USA) to a final concentration 2 mM. The stock solutions were diluted to a proper concentration in PBS and coated overnight on microtiter wells at 4° C. All the peptide solutions were adjusted to the same DMSO concentration. The subsequent steps followed the procedure described above.
Assay [9] concerns the target B3. Briefly: ELISA, peptide coated on wells (2.5 pmol/50 µl), PapD in solution.
Method: as §2
Assay [10] concerns the target B3. Briefly: ELISA, peptide coated on wells, PapD in solution.
Method: as §2
The next assay addresses T3, PapD Lys-112-Ala (E. coli, UniProt P15319 22-239).
T3 sequence: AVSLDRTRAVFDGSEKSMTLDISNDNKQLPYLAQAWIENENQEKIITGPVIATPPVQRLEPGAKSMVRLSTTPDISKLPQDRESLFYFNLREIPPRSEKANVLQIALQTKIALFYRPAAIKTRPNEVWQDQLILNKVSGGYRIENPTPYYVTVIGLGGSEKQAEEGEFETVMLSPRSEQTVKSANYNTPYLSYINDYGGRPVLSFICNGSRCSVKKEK
Briefly: native polyacrylamide gel mobility shift.

The next assay concerns the target T4, PapD Arg-8-Ala (E. coli, UniProt P15319 22-239).
T4 construct: also called R8A; pR8A
T4 sequence: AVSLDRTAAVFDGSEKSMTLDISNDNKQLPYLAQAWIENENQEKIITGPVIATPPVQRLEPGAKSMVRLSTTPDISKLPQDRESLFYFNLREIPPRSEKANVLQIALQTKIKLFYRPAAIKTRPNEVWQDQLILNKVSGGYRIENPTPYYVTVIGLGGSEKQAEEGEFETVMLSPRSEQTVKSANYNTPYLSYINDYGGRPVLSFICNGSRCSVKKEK
Briefly: native polyacrylamide gel mobility shift.

Another assay concerns the target T5, PapD Arg-8-Gly (E. coli, UniProt P15319 22-239).
T5 construct: also called R8G; pR8G
T5 sequence: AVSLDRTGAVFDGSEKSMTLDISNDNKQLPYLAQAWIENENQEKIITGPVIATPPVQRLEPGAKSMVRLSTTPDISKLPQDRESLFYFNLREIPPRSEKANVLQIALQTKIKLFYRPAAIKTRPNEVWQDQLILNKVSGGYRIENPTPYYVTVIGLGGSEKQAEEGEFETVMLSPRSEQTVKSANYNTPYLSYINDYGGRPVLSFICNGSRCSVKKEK
Briefly: native polyacrylamide gel mobility shift.

Results on 17 molecules are retold here after patent US7025971 (WASHINGTON UNIVERSITY, dated 2006).

Where no end group is shown, it is not given here.

B1: G1′-19′SV (peptide)
peptide: GKRKPVELSGSMTMVLSSP
notes: Variant of G1′-19′WT with Phe-2′ to Ser and Gly-14′ to Val
Turning to B1, the binding result in the assay with PapD (wild type) [1] is “binds”.

Turning to MVLSFP [G1′-6′], in the assay with PapD (wild type) [2], the binding result is recorded as “binds”.

The % Inhibition is the percentage by which the read-out fell short of the control. Read a low % Inhibition as little suppression. With TMVLSFP [G1′-7′WT], the “% Inhibition” value with PapD (wild type) [3] worked out at 49%.

B2: G1′-8′WT (peptide)
peptide: MTMVLSFP
notes: also called PapG 8-mer peptide; octameric peptide
Regarding B2, the binding result with PapD (wild type) [2] was “binds”.

Usually Kd stands for a measure of binding affinity in units of concentration. In the case of B3, in assay [4], the binding result is reported as “no binding”. The molecule also displayed a Kd in assay [5] of 2500 nM.

As for KSVVPGDYEATATFELTYR (also called PapK peptide; K-peptide) [K1′-19′WT], the binding result with PapD (wild type) [6] is given as “binds”.

B4: E1′-19′WT (peptide)
peptide: QNLIAGPFSATATLVASYS
notes: Water insoluble peptide; also called PapE peptide
Take B4: the binding result in the assay with PapD (wild type) [6] is “binds”.

B5: SEQ ID NO 22 (peptide)
peptide: QHHYYDLWQDHYKMPY
notes: also called one of the other three second-site peptides of PapG (region 120′ to 156′)
Consider B5, for which the binding result with PapD (wild type) [7] is “no binding (tested: 200 pmol/50 ml of PapD)”.

Turning to DQIKQLPATNTLMLSF (also called site 2 peptide) [G125′-140′], in the assay with PapD (wild type) [8], the binding result was “binds”.

With KKLEAGNYFAVLGFRVDYE (also called PapH peptide) [H1′-19′WT], in the assay with PapD (wild type) [9], the binding result is “no binding”.

For KPGELSGSMTMVLSFP [G1′-16′WT], the binding result in the assay with PapD (wild type) [10] was “binds”.

GILNGGDFQTTASMAMIYN (also called PapF peptide) [F1′-19′WT]: the binding result with PapD (wild type) [6] was “binds”.

B6: SEQ ID NO 19 (peptide)
peptide: LPATNTLMLSFDNVGG
notes: as for B5
B6: the binding result with PapD (wild type) [7] is on record as “no binding (tested: 200 pmol/50 ml of PapD)”.

B7: G1′-19′WT (peptide)
peptide: GKRKPGELSGSMTMVLSFP
notes: Synthetic peptide; residues numbered from the C-terminus (Pro-1′); also called PapG 19-mer peptide; G-peptide
B7: the binding result with PapD Lys-112-Ala, with PapD Arg-8-Ala and with PapD Arg-8-Gly was “no binding” throughout. Further, in the assay with PapD (wild type) [3], the “% Inhibition” value turned out to be 63%.

As for SGSMTMVLSFP (Water insoluble peptide) [G1′-11′WT], the binding result with PapD (wild type) [10] is listed as “binds”.

B8: SEQ ID NO 21 (peptide)
peptide: YKMPYDQIKQLPATNT
notes: as for B5
Turning to B8, the binding result with PapD (wild type) [7] is reported as “no binding (tested: 200 pmol/50 ml of PapD)”.

As to GKRKPGELSGSMTMVLSFP-NH2 (also called G1′-19′NH2) [G1′-19′amide], the “% Inhibition” value with PapD (wild type) [3] stood at 56%.
